Several values for one entry are separate records, joined by “and”; a condition that tells them apart may be missing. Identical values can stand only once.
Assays:
[1] = biological target: the molecule itself; test: cryo-EM structure
[2] = biological target: the molecule itself; test: SEC-MALS

B1: human Twinkle helicase W315L (C-terminal his-tag Δ42, FL residues 43–684) (enzyme, UniProt Q96RR1 43-684, looked up)
chain: ETLQALDMPVLPVTATEIRQYLRGHGIPFQDGHSCLRALSPFAESSQLKGQTGVTTSFSLFIDKTTGHFLCMTSLAEGSWEDFQASVEGRGDGAREGFLLSKAPEFEDSEEVRRIWNRAIPLWELPDQEEVQLADTMFGLTKVTDDTLKRFSVRYLRPARSLVFPWFSPGGSGLRGLKLLEAKCQGDGVSYEETTIPRPSAYHNLFGLPLISRRDAEVVLTSRELDSLALNQSTGLPTLTLPRGTTCLPPALLPYLEQFRRIVFWLGDDLRSLEAAKLFARKLNPKRCFLVRPGDQQPRPLEALNGGFNLSRILRTALPAWHKSIVSFRQLREEVLGELSNVEQAAGLRWSRFPDLNRILKGHRKGELTVFTGPTGSGKTTFISEYALDLCSQGVNTLWGSFEISNVRLARVMLTQFAEGRLEDQLDKYDHWADRFEDLPLYFMTFHGQQSIRTVIDTMQHAVYVYDICHVIIDNLQFMMGHEQLSTDRIAAQDYIIGVFRKFATDNNCHVTLVIHPRKEDDDKELQTASIFGSAKASQEADNVLILQDRKLVTGPGKRYLQVSKNRFDGDVGVFPLEFNKNSLTFSIPPKNKARLKKIKDDTGPVAKKPSSGKKGATTQNSEICSGQAPTPDQPDTSKRSK
stoichiometry N [1]: 7 and 8 | stoichiometry N [2]: ~8

From publication PMC9371709 (Proceedings of the National Academy of Sciences of the …, 2022)
